Reference: patent US20210145978A1, “ANTI-CD71 ACTIVATABLE ANTIBODY DRUG CONJUGATES AND METHODS OF USE THEREOF” (AbbVie Inc., priority 2017, published 2021)

How the values were obtained:
[1] = Tolerability and stability of AADCs and ADC in cynomolgus monkeys (Example 10); type: in vivo, cynomolgus monkey
Protocol: In this study, cynomolgus monkeys were treated intravenously with the indicated AADC or ADC with the indicated dosage at days 1 and […]. Only one dose was tolerated for anti-CD71 TF02.13-3011-vc-MMAE AADC and only one dose was administered for anti-CD71-vc-MMAE E2 (i.e. having a DAR of ˜2) ADC. The stability of the activatable antibodies (i.e. total activatable antibody vs intact activatable antibody) in the samples obtained from each animals was performed as described in Example 9 using reverse phase LC/MS/MS)
The body weight loss was determined on the lowest measure weight following the 1st administered dose. The baseline neutrophil count was at least 1000 per μL.

[2] = Non-GLP pilot toxicity studies in cynomolgus monkeys; type: in vivo, cynomolgus monkey
Protocol: Terminal necropsies were performed on the test animals on day 29 (7 days after the last dose). Assessments during the study included clinical signs, body weight, food consumption, clinical pathology, anatomic pathology, TK, and immunogenicity.

[3] = system: cynomolgus CD71 on CHO cells; assay: FACS binding to cells, Table 3B; details: binding curves of FIG. 3D; read-out: CHO w/ Cynomolgus CD71 FACS EC50
Text: (§1) FIGS. 3C and 3D show in a FACS assay the exemplary results that anti-CD71 activatable antibodies of the present disclosure and anti-CD71 conjugated activatable antibodies of the present disclosure bind cells expressing human CD71 (FIG. 3C) and cynomolgus CD71 (FIG. 3D) with a higher dissociation constant and lower affinity than that of the corresponding protease-activated anti-CD71 activatable antibody or protease-activated anti-CD71 conjugated activatable antibody of the present disclosure.
(§2) In the exemplary study shown in FIGS. 3C and 3D, the binding of the antibodies of the present disclosure to the indicated cell lines were performed using a standard FACS labelling method. […] In addition, the binding affinity of the anti-CD71 activatable antibody (anti-CD71 TF02.13-2011 (Act)) and the E2 (i.e. having a DAR of ˜2) anti-CD71 conjugated activatable antibody (anti-CD71 TF02.13-2011-vcMMAE E2 (Act)) were also assayed following protease-activation that cleaved the cleavable moiety therein. Each test article was applied at the indicated concentrations and subsequently detected with an Alexa Fluor 647 labeled goat anti-human IgG secondary antibody.

CD71 on NCI H292 cells = biological target: T1, CD71 on NCI H292 cells (Homo sapiens, UniProt P02786); assay: FACS binding to NCI H292 cells, masking efficiency (Example 3); details: relative to parental Ab 21.12
T1 construct: endogenous in cells; host or cells: NCI-H292
T1 sequence (P02786 whole entry): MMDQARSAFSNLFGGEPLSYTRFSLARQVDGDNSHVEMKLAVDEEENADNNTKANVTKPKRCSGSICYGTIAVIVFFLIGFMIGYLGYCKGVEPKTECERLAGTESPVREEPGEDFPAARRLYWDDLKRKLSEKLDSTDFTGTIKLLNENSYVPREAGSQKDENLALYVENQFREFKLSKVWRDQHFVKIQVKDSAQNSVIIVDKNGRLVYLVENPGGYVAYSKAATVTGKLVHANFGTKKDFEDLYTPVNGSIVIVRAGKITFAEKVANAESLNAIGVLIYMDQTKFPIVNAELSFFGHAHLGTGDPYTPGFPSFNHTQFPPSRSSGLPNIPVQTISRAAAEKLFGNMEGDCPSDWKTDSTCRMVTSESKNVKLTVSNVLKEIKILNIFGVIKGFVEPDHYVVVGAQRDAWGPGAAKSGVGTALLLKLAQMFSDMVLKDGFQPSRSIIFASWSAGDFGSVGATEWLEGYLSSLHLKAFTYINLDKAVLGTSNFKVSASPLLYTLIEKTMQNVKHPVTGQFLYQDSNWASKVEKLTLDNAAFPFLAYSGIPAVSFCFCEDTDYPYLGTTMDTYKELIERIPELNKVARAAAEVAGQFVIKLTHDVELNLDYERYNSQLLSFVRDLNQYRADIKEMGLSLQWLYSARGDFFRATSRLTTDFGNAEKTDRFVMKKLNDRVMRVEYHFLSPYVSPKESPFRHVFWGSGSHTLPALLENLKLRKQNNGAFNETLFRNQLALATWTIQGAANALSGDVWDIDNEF
Protocol: Binding of anti-CD71 activatable antibodies of the present disclosure to the NCI H292 (also referred to herein as H292) cell line was evaluated using FACS. Briefly, cells were labeled with huCD71 antibody or activatable antibody at a range of concentrations and subsequently detected with an Alexa Fluor 647 labeled goat anti-human IgG secondary antibody to determine a binding curve.

human CD71 on H292 cells = biological target: T2, human CD71 on H292 cells (Homo sapiens, UniProt P02786); assay: FACS binding to cells, Table 3B; details: binding curves of FIG. 3C
T2 construct: endogenous in cells; host or cells: NCI-H292
T2 sequence (P02786 whole entry): as above
Text: as §1, §2

[4] = 0.6 mg/kg, q3wx2, non-GLP study

B1: Ab21.12-vc-MMAE E2: unmasked parental anti-CD71 antibody drug conjugate (ADC), Ab21.12 with vc-MMAE (conjugate)
VH: QVQLVQSGAEVKKPGASVKMSCKASGYTFTSYWMHWVRQAPGQGLEWIGAIYPGNSETGYAQKFQGRATLTADTSTSTAYMELSSLRSEDTAVYYCTRENWDPGFAFWGQGTLITVSS
VL: DIQMTQSPSSLSASVGDRVTITCSASSSVYYMYWFQQKPGKAPKLWIYSTSNLASGVPSRFSGSGSGTDYTLTISSMQPEDFATYYCQQRRNYPYTFGQGTKLEIK
modifications: vc-MMAE conjugate, DAR ~2
notes: unmasked parental anti-CD71 antibody drug conjugate (ADC), Ab21.12 with vc-MMAE
[1]; 2 mg/kg IV, one dose, baseline at least 1000 per μL
  Avg. Neutrophil Count ± SD (per μL): 70 per μL
[1]; 2 mg/kg IV, one dose, lowest weight after 1st dose
  Body weight loss: ~8%
[1]; non-masked E2 ADC, cynomolgus monkeys (2 mg/kg in Table 5)
  lethality, time after the first dose: ≤ 8 days
[2]; [4]
  Average neutrophil count ± SD: 280 ± 42
  Body weight loss: 4%
  Tolerability: Tolerated
[2]; 2 mg/kg, q3wx2, non-GLP study
  Average neutrophil count ± SD: 70
  Body weight loss: 6%
[2]; 0.6 to 18 mg/kg IV bolus
  test article-related findings: consisted primarily of hematologic toxicity
[2]; 6 and 2 mg/kg
  toxicity (hunched posture, decreased activity, body temperature elevation): Severe toxicity
[2]; single dose at 2 mpk
  time to lack of tolerability after a single dose: ≤ 8 days
[2]; single dose at >2 mg/kg
  mortality: mortality attributed to secondary infection was observed

B2: Ab 21.12-vc-M MAE: anti-CD71 Ab 21.12 conjugated to vc-MMAE; DAR not stated in Table 3B (conjugate)
VH: B1 VH
VL: B1 VL
modifications: vc-MMAE conjugate
[3]
  EC50: 291 pM

B3: Ab21.12: humanized anti-CD71 antibody, VH of SEQ ID NO: 5 and VL of SEQ ID NO: 7 (antibody, V domains shown)
VH: B1 VH
VL: B1 VL
CD71 on NCI H292 cells
  Masking Efficiency: 1
Human CD71 on H292 cells
  EC50: 1020 pM
